In patent publication US20180086841A1 (Merck Sharp & Dohme, published 2018):

T1: Macaca mulatta CD27 (mmCD27) (Macaca mulatta (rhesus) / Macaca …, UniProt P26842 21-260 (human entry))
T1 construct: also called Rhesus CD27; rhesus monkey CD27
T1 chain: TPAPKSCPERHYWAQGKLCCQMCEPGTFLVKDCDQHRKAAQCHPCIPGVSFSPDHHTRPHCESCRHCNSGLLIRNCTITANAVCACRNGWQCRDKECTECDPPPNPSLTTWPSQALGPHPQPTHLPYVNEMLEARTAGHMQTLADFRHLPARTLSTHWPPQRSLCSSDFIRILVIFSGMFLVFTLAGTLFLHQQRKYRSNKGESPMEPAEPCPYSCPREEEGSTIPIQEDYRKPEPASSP

T2: P8A
T2 construct: also called hCD27 P8A
T2 receptor chain: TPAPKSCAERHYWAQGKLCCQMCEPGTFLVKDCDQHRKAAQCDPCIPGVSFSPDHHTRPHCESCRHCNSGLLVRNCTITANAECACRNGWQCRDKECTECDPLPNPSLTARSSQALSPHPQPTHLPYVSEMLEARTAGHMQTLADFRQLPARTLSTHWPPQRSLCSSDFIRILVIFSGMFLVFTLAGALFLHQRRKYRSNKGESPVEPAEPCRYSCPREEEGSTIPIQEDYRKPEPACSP

T3: H36A
T3 construct: also called hCD27 H36A
T3 receptor chain: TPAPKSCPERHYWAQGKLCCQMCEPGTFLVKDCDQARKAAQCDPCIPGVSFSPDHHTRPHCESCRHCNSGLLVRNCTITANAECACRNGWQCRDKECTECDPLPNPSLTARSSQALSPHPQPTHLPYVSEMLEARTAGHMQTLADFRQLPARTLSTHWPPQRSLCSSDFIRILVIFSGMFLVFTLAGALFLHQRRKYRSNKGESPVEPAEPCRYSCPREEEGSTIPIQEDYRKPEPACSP

T4: R37A
T4 construct: also called hCD27 R37A
T4 receptor chain: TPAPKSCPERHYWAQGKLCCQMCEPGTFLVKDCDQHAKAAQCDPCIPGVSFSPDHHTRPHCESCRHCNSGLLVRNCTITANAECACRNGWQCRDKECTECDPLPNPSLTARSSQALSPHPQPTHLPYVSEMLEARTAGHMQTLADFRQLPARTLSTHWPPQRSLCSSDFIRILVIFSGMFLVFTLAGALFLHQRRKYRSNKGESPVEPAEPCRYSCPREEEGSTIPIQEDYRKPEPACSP

T5: K38A
T5 construct: also called hCD27 K38A
T5 receptor chain: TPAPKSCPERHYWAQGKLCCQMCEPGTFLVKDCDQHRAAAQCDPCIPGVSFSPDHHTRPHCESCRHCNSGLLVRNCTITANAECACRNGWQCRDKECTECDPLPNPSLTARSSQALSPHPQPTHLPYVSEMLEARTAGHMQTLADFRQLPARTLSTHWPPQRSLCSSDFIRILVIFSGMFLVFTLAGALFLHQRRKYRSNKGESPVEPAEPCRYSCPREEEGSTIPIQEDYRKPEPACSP

T6: V30A
T6 construct: also called hCD27 V30A
T6 receptor chain: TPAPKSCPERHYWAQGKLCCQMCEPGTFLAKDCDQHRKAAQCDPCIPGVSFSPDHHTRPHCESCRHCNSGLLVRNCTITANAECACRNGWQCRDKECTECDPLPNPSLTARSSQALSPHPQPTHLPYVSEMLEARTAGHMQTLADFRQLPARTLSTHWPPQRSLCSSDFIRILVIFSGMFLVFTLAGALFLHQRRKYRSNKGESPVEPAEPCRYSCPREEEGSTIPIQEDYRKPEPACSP


Experiments:
[1] = target: T1, Macaca mulatta CD27 (mmCD27); test: cell ELISA on CHO-K1 transfectants (selection of the clone)
Procedure: (§1) On day eight, supernatants were screened by cell-ELISA for reactivity to hCD27 as described above. In addition, the hCD27-reactive supernatants were tested for binding to Macaca Mulatta CD27 (mmCD27) expressed on CHO-K1 cells. […] In the cell-ELISA, all incubation steps were followed by a wash step with PBST (PBS with 0.01% Tween 20). Parental CHO-K1, CHO-K1.hCD27, or CHO-K1.mmCD27 cells were seeded (40,000 cells/well) in tissue culture plates and incubated overnight at 37° C. The next day, culture medium was removed and cells were incubated for one hour with (dilutions of) B-cell supernatants at 37° C. […] Subsequently, cells were washed 6 times with PBST and anti-hCD27 immunoreactivity was visualized with 100 μl TMB Stabilized Chromagen (Invitrogen, cat. no. SB02). Reactions were stopped with 100 μl 0.5 M H₂SO₄ and absorbances were read at 460 and 620 nm.
(§2) Hybridoma supernatants were tested in Cell-ELISA experiments for binding to CHO-K1.mmCD27 or CHO-K1 cells expressing hCD27 (A59T), as described above. […] A serial dilution of the supernatants was added.

human CD27 (A59T) = target: T7, human CD27 (A59T) (human, UniProt P26842 21-260); test: as above
T7 construct: also called hCD27 (A59T); human CD27 variant p.Ala59Thr
Procedure: as §1, §2

P8A [2] = target: T2, P8A; test: flow cytometry on CHO-K1 transfectants, left sub-column, cell hatched (loss of binding)
Procedure: (§3) The ability of several anti-hCD27 antibodies to bind to a series of hCD27 alanine mutants was determined using CHO-K1 cells, transiently transfected pCI-neo empty vector, pCI-neo.hCD27 and several pCI-neo.CD27Ala mutant constructs.
(§4) Detached cells were transferred to 96 wells round-bottomed well plates at approximately 1.2×10⁵ cells/well. After spinning down the cells, discarding the supernatants and re-suspending the cells in the residual volume, the primary antibodies were added and incubated for 30 minutes at 4° C. Cells were washed three times with DPBS/BSA 1%, followed by centrifugation, discarding of the supernatants and re-suspension in the residual volume. […] After washing once, antibody binding was detected using the HTS plate reader (FACS Canto II) and FlowJo software for data analysis. Debris, dead cells and doublets were excluded from the analysis. Binding was expressed as the geometric mean of the FITC signal, relative to antibody binding to hCD27, which was set at 100%.

H36A [3] = target: T3, H36A; test: as above
Procedure: as §3, §4

R37A [4] = target: T4, R37A; test: as above
Procedure: as §3, §4

K38A [5] = target: T5, K38A; test: as above
Procedure: as §3, §4

P8A [6] = target: T2, P8A; test: flow cytometry on CHO-K1 transfectants, right sub-column, cell hatched (loss of binding)
Procedure: (§5) The hCD27 variants that were tested are listed. Amino acids correspond to the UniProt P26842-1 sequence. Amino acids 1-20 constitute the signal peptide. Binding is expressed as the geometric mean of the FITC signal, relative to antibody binding to hCD27, which was set at 100%.
as §3, §4

H36A [7] = target: T3, H36A; test: as above
Procedure: as §5, §3, §4

R37A [8] = target: T4, R37A; test: as above
Procedure: as §5, §3, §4

K38A [9] = target: T5, K38A; test: as above
Procedure: as §5, §3, §4

H36A [10] = target: T3, H36A; test: flow cytometry on CHO-K1 transfectants;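 further: Anti-hCD27 antibodies tested on transiently transfected CHO-K1 cells bearing hCD27 alanine mutants, 30 min at 4 °C primary incubation, FITC readout excluding debris, dead cells and doublets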
Procedure: as §5, §3, §4

V30A = target: T6, V30A; test: flow cytometry on CHO-K1 transfectants;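 further: Anti-hCD27 antibodies tested on transiently transfected CHO-K1 cells bearing hCD27 alanine mutants, 30 min at 4 °C primary incubation, FITC readout excluding debris, dead cells and doublets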
Procedure: as §5, §3, §4

Row | binding result [1] | binding result (human CD27 (A59T)) | binding, WT hCD27 = 100 (GM FITC) (P8A [2]) | binding, WT hCD27 = 100 (GM FITC) (H36A [3]) | binding, WT hCD27 = 100 (GM FITC) (R37A [4]) | binding, WT hCD27 = 100 (GM FITC) (K38A [5]) | binding, WT hCD27 = 100 (GM FITC) (P8A [6]) | binding, WT hCD27 = 100 (GM FITC) (H36A [7]) | binding, WT hCD27 = 100 (GM FITC) (R37A [8]) | binding, WT hCD27 = 100 (GM FITC) (K38A [9]) | binding, WT hCD27 = 100 (GM FITC) (H36A [10]) | binding, WT hCD27 = 100 (GM FITC) (V30A) | Binder
1 | binds | binds | 44.9% | 54.1% | 50.3% | 48.2% | 15.9% | 10.8% | 9.6% | 11.8% | – | – | hCD27.131A (mouse parental 131A) (antibody, mouse IgG1, V domains shown, Mouse IgG1 antibody; also called mouse hCD27.131A) VH: QIQLVQSGPELKKPGETVKISCKASGYTFTNYGMNWVKQAPGKGLKWMGWINTNTGEPTYAEEFKGRFAFSLETSATTAYLQINNLKNEDTATYFCAREGDAMDYWGQGTSVTVSS VL: QIVLTQSPAIMSASPGEKVTMTCSASSSVSYMHWYQQKSGTSPKRWIYDTSKLASGVPARFSGSGSGTSYSLTISSMEAEDAATYYCQQWNSYPFTFGSGTKLEIK
2 | – | – | – | – | – | – | – | – | – | – | 122% | 82.6% | hCD27.15-6B (antibody, human IgG4 S228P, kappa, V domains shown, also called hCD27.15 (humanized 6B); humanized hCD27.15 (human IgG4, Clone 6B)) VH: QVQLVQSGAEVKKPGASVKVSCKASGFIIKATYMHWVRQAPGQRLEWMGRIDPANGETKYDPKFQVRVTITADTSASTAYMELSSLRSEDTAVYYCARYAWYFDVWGQGTLVTVSS VL: DIQMTQSPSSLSASVGDRVTITCRASENIYSFLAWYQQKPGKAPKLLIYHAKTLAEGVTSRFSGSGSGTDFTLTISSLQPEDSATYYCQHYYGSPLTFGQGTRLEIKR
